Laboratory results published in patent publication US20200353078A1 (AstraZeneca / MedImmune, published 2020).

Key:
[1] = target: T1, Human IL-33 (Axxora/Adipogen AG-40B-0038) (human, UniProt O95760 112-270, limits assumed); assay: cell-based or functional assay
T1 sequence (looked up): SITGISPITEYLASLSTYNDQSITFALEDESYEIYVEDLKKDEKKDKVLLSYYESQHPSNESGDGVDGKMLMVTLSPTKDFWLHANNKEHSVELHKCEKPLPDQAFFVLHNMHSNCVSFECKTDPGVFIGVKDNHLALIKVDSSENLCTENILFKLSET

[2] = target: T2, Human IL-33 (Axxora/Alexis ALX-522-098) (human, UniProt O95760 112-270); assay: cell-based or functional assay
T2 sequence (looked up): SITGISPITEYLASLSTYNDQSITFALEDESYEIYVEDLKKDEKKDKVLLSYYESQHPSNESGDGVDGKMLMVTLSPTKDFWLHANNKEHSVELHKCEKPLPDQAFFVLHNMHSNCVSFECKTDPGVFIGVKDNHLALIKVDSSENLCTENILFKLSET

Human IL-33 Flag®His = target: T3, Human IL-33 Flag®His (human); assay: ELISA, biotinylated antigen on streptavidin plate, anti-human IgG HRP
T3 construct: Mature IL-33 with C-terminal FLAG 10xHis tag, from E. coli; biotinylated via free cysteines where used biotinylated; also called Mature Human IL-33_FH; human IL-33 FH
T3 chain: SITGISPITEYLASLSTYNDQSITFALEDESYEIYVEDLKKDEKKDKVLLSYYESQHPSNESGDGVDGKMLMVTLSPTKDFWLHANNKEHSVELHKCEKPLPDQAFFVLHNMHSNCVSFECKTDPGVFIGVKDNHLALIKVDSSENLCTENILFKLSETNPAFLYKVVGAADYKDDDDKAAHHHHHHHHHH
Method: (§1) 96-well Greiner polypropylene plates (Greiner, 650201) were used for dilution preparation. Generally, each dilution was prepared in duplicate. IgG dilutions were allowed to block in PBS-M for 1 hour at room temperature before being used directly in ELISA experiments.
(§2) Streptavidin plates (Thermo Scientific, AB-1226) were coated with biotinylated antigen at 0.5 μg/ml in PBS and incubated overnight at 4° C. Plates were washed 3× with PBS and blocked with 300 μl/well blocking buffer (PBS-M) for 1 hour. Plates were washed 1× with PBS and blocked samples added, 50 μl/well for 1 hour at room temperature. […] Plates were washed 3× with PBS-T and developed with TMB, 50 μl/well (Sigma, T0440). The reaction was quenched with 50 μl/well 0.1M H2504 before reading on an EnVision™ plate reader, or similar equipment, at 450 nm.
(§3) Species cross-reactivity of anti-IL-33 antibodies was determined using a plate-based ELISA. Streptavidin plates (Thermo Scientific, AB-1226) were coated with biotinylated antigen at 0.5 μg/ml in PBS. Binding of purified IgG preparations was detected with anti-human IgG HRP (Sigma, A0170).

[3] = target: T4, Cynomolgus IL-33 Flag®His (cynomolgus monkey); assay: as above
T4 construct: C-terminal FLAG 10xHis tag, E. coli; also called Mature Cynomolugus IL-33; cyno IL-33 FH
T4 chain: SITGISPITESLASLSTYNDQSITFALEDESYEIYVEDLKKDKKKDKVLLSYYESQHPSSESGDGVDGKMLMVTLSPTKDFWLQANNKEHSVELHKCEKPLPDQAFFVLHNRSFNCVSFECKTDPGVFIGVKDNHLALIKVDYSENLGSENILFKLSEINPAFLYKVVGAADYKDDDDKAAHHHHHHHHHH
Method: as §1, §2, §3

Mouse IL-33 Flag®His = target: T5, Mouse IL-33 Flag®His (mouse); assay: as above
T5 construct: C-terminal FLAG 10xHis tag, E. coli; also called Mature Mouse IL-33_FH; mouse IL-33 FH
T5 chain: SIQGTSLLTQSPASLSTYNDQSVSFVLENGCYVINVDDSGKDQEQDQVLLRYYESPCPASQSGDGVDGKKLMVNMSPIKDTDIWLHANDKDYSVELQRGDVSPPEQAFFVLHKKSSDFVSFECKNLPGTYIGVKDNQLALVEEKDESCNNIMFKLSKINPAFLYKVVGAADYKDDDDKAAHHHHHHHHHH
Method: as §1, §2, §3

His10/Avi Human IL33-01 [4] = target: T6, His10/Avi Human IL33-01 (human); assay: HTRF epitope competition, scFv titrated; competitor DyLight labelled 33v20064 IgG
T6 construct: Wild type mature IL-33 with N-terminal 10xHis, Avitag and Factor Xa site; biotinylated by BirA on the Avitag where used biotinylated; reduced form unless treated; also called N-terminal His Avi IL-33; His-Avi human IL-33 wild type
T6 chain: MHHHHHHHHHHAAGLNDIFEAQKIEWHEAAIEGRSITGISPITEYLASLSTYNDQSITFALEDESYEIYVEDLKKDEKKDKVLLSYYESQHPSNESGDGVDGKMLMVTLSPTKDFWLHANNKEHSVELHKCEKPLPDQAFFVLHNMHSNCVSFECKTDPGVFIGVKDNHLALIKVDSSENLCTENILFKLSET
Method: (§4) This was followed by the addition of 2.5 microlitres of a solution containing 0.8 nM biotinylated human IL-33-01 combined with 0.75 nM streptavidin cryptate detection (Cisbio International, 610SAKLB) for the human assay or a solution containing 4 nM biotinylated cynomolgus IL-33 combined with 1.5 nM streptavidin cryptate detection (Cisbio International, 610SAKLB) for the cynomolgus assay. All dilutions were performed in assay buffer containing 0.8 M potassium fluoride (VWR, 26820.236) and 0.1% bovine serum albumin (BSA, PAA, K05-013) in Dulbeccos PBS (Invitrogen, 14190185). Assay plates were incubated for 1 hour at room temperature and time resolved fluorescence was read at 620 nm and 665 nm emission wavelengths using an EnVision plate reader (Perkin Elmer). Data were analysed by calculating the 665/620 nm ratio followed by the % Delta F values for each sample. The 665/620 nm ratio was used to correct for sample interference using Equation 1. The % Delta F for each sample was then calculated using Equation 2. The negative control (non-specific binding) was defined by replacing biotinylated IL-33 combined with streptavidin cryptate detection with streptavidin cryptate detection only. The % Delta F values were subsequently used to calculate % specific binding as described in Equation 3.
(§5) Unique scFv were expressed again in bacteria and purified by affinity chromatography (as described in WO01/66754). Purified anti-IL-33 antibody samples were tested for potency of inhibition by competing a dilution series of the purified preparation against DyLight labelled 33v20064 IgG or DyLight labelled 33_640027 IgG for binding to biotinylated His Avi IL33-01, biotinylated His Avi IL33-11 or biotinylated His Avi cynomolgus IL-33. Methods are as described in the previous section.

His10/Avi Human IL33-11 = target: T7, His10/Avi Human IL33-11 (human); assay: as above
T7 construct: C208S, C259S mutant (already in the entry), N-terminal His10/Avitag; also called His-Avi mutant IL-33; SCCS
T7 chain: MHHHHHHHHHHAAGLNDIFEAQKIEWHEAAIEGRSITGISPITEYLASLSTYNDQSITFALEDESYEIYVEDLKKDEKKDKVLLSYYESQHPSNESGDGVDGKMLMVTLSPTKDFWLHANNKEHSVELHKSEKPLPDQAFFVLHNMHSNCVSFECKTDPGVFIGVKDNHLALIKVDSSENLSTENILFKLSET
Method: as §4, §5

His10/Avi Cyno IL-33 [5] = target: T8, His10/Avi Cyno IL-33 (cynomolgus monkey); assay: as above
T8 construct: also called Cynomolgus 10His Avitag IL-33; biotinylated His Avi cynomolgus IL-33
T8 chain: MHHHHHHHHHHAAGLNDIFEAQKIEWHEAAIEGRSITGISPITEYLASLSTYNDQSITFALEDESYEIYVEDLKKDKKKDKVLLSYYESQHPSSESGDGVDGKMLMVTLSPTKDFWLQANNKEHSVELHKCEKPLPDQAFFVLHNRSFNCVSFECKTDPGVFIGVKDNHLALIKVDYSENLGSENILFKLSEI
Method: as §4, §5

His10/Avi Human IL33-01 [6] = target: T6, His10/Avi Human IL33-01; assay: HTRF epitope competition, scFv titrated; competitor DyLight labelled 33_640027 IgG
His10/Avi Cyno IL-33 [7] = target: T8, His10/Avi Cyno IL-33; assay: as above
[8] = target: T9, Full-length human IL-33 (amino acids 1-270), HEK293-EBNA cell lysate (human, UniProt O95760 1-270); assay: cell-based or functional assay
T9 sequence (looked up): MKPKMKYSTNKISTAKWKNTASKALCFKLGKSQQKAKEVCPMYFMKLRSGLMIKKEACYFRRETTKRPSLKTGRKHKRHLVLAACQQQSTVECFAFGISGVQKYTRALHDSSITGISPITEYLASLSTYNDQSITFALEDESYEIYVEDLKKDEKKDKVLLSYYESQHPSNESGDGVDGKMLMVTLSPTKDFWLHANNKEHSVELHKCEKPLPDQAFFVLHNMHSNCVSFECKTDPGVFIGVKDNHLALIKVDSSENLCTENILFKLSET

His10/Avi Human IL33-01 [9] = target: T6, His10/Avi Human IL33-01; assay: HTRF epitope competition, IgG titrated; competitor DyLight labelled 33_640117 IgG; 1 hour
In short: (§6)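 HTRF competition in which titrated IgG blocks binding of DyLight-labelled 33_640117 IgG (2.5 nM stock) to biotinylated IL-33 detected with streptavidin cryptate: human IL-33-01 at 0.12 nM with 0.75 nM cryptate, cyno IL-33 at 0.24 nM with 1.5 nM cryptate (solution concentrations). Fluorescence read after 1 h and overnight.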

His10/Avi Cyno IL-33 [10] = target: T8, His10/Avi Cyno IL-33; assay: as above
In short: as §6

His10/Avi Human IL33-01 [11] = target: T6, His10/Avi Human IL33-01; assay: HTRF epitope competition, IgG titrated; competitor DyLight labelled 33_640117 IgG; overnight
In short: as §6

B1: IL330107 IgG (antibody, V domains shown)
VH: QMQLVQSGGGVVQPGGSLRLSCAASGFTFSSYAMSWVRQAPGKGLEWVSAISGSGGSTYYADSVKGRFTISRDNSKNTLYLQMNSLRAEDTAVYYCAKPFPSYWYFDLWGKGTLVTVSS
VL: SYVLTQPPSVSVSPGQTARITCSGDALPKQYAYWYQQKPGQAPVLVIYKDSERPSGIPERFSGSSSGTTVTLTISGVQAEDEADYYCQSADSSGTYRVFGGGTQLTVL
notes: IgG1 or IgG1-TM
Which results are given for B1?
IC50 (geomean), Mast cell IL-6 production [1]: 283 nM; IC50, TF-1 proliferation [2]: 94 nM; EC50 (Human IL-33 Flag®His): 0.86 nM; EC50 [3]: 1.09 nM; EC50 (Mouse IL-33 Flag®His): 0.83 nM

B2: 33_640047 scFv (scFv, V domains shown)
VH: EVQLLESGGGLVQPGGSLRLSCAASGFTFSSYAMSWVRQAPGKGLEWVSAISGSGGSTYYADSVKGRFTISRDNSKNTLYLQMNSLRAEDTAVYYCTRLKFMQLWGGGLRYPFGYWGQGTMVTVSS
VL: SYVLTQPPSVSVSPGQTASITCSGERMGDKYAAWYQQKPGQSPVLVIYQDTKRPSGIPERFSGSNSGNTATLTISGTQAMDEADYYCQVWDSSTGVFGGGTKVTVL
notes: Single chain Fv; also called ZZ1F7P-E01
For B2, which IC50 (His10/Avi Human IL33-01 [4]) is on record?
The IC50 was 0.4 nM.

And the IC50 (His10/Avi Human IL33-11)?
Its IC50 is 0.5 nM.

What about the IC50 (His10/Avi Cyno IL-33 [5]) of the same binder?
The IC50 was 2.7 nM.

What about the IC50 (His10/Avi Human IL33-01 [6]) of the same binder?
Its IC50 is 2.3 nM.

What about the IC50 (His10/Avi Cyno IL-33 [7]) of the same binder?
Its IC50 is 8.8 nM.

B3: 33v20064 IgG1 (antibody, V domains shown)
VH: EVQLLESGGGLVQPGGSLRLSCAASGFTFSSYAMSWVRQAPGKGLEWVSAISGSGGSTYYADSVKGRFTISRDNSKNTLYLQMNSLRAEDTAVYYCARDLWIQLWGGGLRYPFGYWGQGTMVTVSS
VL: LPVLTQPPSVSVSPGQKASITCSGERMGDKYAAWYQQKPGQSPILVIYQDTKRPSGIPERFSGSNSGNTATLTISGTQDMDEADYYCQVWDSSTGVFGGGTKVTVL
notes: IgG1; also called ZZ1EBX-E05
What does the source list for B3?
IC50, Huvec IL-8 assay vs. full length IL-33 cell lysate [8]: 185 nM; IC50 (His10/Avi Human IL33-01 [9]): 150 nM; IC50 (His10/Avi Cyno IL-33 [10]): 788 nM; IC50 (His10/Avi Human IL33-01 [11]): 689 nM
